From article doi:10.1101/2022.01.26.477835 (bioRxiv, 2022)

Target: His fused LCK (His-LCK) (human, UniProt P06239 1-509)
Assay: pull-down

Sequence of His fused LCK (His-LCK) (P06239 whole entry, the tested form may be a part): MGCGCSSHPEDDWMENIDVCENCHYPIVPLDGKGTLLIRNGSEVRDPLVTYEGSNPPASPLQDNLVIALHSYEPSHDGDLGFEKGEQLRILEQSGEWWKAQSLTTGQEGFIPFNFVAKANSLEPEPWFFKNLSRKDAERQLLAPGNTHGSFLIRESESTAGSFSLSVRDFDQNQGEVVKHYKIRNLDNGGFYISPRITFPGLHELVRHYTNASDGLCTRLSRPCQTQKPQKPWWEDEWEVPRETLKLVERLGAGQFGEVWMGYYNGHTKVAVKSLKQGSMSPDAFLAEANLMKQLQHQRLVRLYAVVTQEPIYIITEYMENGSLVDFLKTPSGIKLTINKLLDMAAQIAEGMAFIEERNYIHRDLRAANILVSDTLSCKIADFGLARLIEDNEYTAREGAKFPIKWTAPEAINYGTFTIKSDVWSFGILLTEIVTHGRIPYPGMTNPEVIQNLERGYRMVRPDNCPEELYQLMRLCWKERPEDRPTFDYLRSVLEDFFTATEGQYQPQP

B1: GST-tagged C-terminus of TRPM8 (GST-M8C) (domain or fragment, rat, UniProt Q8R455 980-1104, looked up)
chain: GYTVGIVQENNDQVWKFQRYFLVQEYCNRLNIPFPFVVFAYFYMVVKKCFKCCCKEKNTESSACCFRNEDNETLAWEGVMKENYLVKINTKANDNAEEMRHRFRQLDTKLNDLKGLLKEIANKIK
binding result: binds
